The supplement of paper PMC9170038

Tested on: MS2 coat protein
Test: apparent KD of MS2 coat protein; designed switch direction (-1 OFF switch, 1 ON switch): -1; higher = weaker reporter binding
How it was run: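 Apparent KD, taken as the median over clusters for each design, was obtained by curve-fitting normalised cluster fluorescence. Designed RNA switches had been transcribed on Illumina chips by stalled E. coli RNA polymerase and titrated with SNAP-549-labelled MS2 coat protein, doubling from 0.7 or 1.5 nM to 3 µM.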

[1] = Eterna round: R95, input ligand: FMN 200 uM
[2] = Eterna round: R95, input ligand: microRNA oligo, concentration not stated
[3] = Eterna round: R95, input ligand: none
[4] = input ligand: microRNA oligo, concentration not stated

Row | Sequence | apparent KD of MS2 coat protein [1] | apparent KD of MS2 coat protein [2] | apparent KD of MS2 coat protein [3] | apparent KD of MS2 coat protein (input ligand: FMN 200 uM) | apparent KD of MS2 coat protein [4] | apparent KD of MS2 coat protein (input ligand: none)
1 | UUUUUCGAACAAGCUACGUACAUGAGGAUCACCCAUGUCGGUAGAUUUGAGUAGGUUUGGAUGGAAGCUCGUCUUAU [JR_SV3TOV1_Sub085] (puzzle: Sensor v3, turn-off variant 1) | 19.4 nM | 28.2 nM | 19.5 nM |  |  | 
2 | CUUUAGUGAGGAUAUCAGUAGUAAUACAAUAGUAUUACUACUGAGAAGGCACAUGAGGAUCACCCAUGUUCUUC [Mat - Exclusion 4 - Mod of Omei - D77] (puzzle: Exclusion 4) |  | 18.8 nM |  |  |  | 
3 | CGAGUGUAAGGAUAUUCGGCACCAGAGAACGAUCUGGCGUAGAAGAAGGUACAUGAGGAUCACCCAUGUGGUUA [Atonte] (puzzle: Exclusion 4) |  | 114 nM |  |  |  | 
4 | GGCGUGUCGCGAGGAUAUUCAAACGGACAUGAGGAUCACCCAUGUGAAAGGAAUGUCGAGGUUAUGGAGAAGGCGUUCACGCCG [Qubizace] (Eterna round: R96, puzzle: Exclusion NG 2) |  |  |  | 549 nM | 92 nM | 153 nM
5 | UUAUAUAGUGUGAGGAUAUGCUGGUCCUUGGAUCAGCAGAAGGCACAUGAGGAUCACCCAUGUAGUUUAUUUUA [JL bmx4 3.01] (puzzle: Brourd's mod of Exclusion 4) |  | 26.8 nM |  |  |  | 
6 | GAAUAGAGAGGAUAUGCAAUGAAGGUAGUACGAUAUAUCUGACAUGAGGAUCACCCAUGUAGAAGGCUCAGAUC [EX2 #8] (Eterna round: R97, puzzle: Exclusion 2) |  |  |  | 29.2 nM |  | 29.3 nM
7 | UCACGGGAUUGAGGAUAUAUAUUAAUUUUUACAAUAGAAGGCAAAUUUUUAGUUUUUUCACUUUACAUGAGGAUCACCCAUGUU [JR_ExcBG1_Sub081] (Eterna round: R96, puzzle: Exclusion NG 1) |  |  |  |  | 20.5 nM | 
8 | ACAAGCUUUUUGUUCGUCUUAUACACUCCUAAUAAGACAACAUGAGGAUCACCCAUGUAACAAACAAGAACUCAUGU [Sesor Array 6 - Jieux - Sensor v3, turn-off variant 2] (puzzle: Sensor v3, turn-off variant 2) | 55.1 nM | 359 nM | 72.5 nM |  |  | 
9 | CAGCCUCUUGUGAGGAUAUUCUGCUAAGCGAGGCGGAAGAAGGUACAUGAGGAUCACCCAUGUUGGCGGAAUAA [Eternabot (Original) Solution 21] (Eterna round: R97, puzzle: Brourd's mod of Exclusion 4) |  |  |  | 167 nM |  | 37.6 nM
10 | UAUUAGCAAGCGAGAUCCCACAUGAGGAUCACCCAUGUAACAUCCAGAAUUACUGGGUGCAAAGCUCGUCUUAUAUA [Winner reversed engineered 3] (Eterna round: R97, puzzle: Sensor, turn-off variant 1) |  |  |  | 434 nM |  | 496 nM
11 | ACAAGCUUUUUCAUAUCUAACAUGAGGAUCACCCAUGUUUAAGCAAUUAUGUUUGGGCUCUUUUGAGCUCGUCUUAU [JR_STOV1_Sub047] (Eterna round: R97, puzzle: Sensor, turn-off variant 1) |  |  |  | 13.8 nM |  | 12.3 nM
12 | AAGAAGGCCGUAGGAUAUACAGCAAGAACGCGAGUAGAAGGACGAUACAUGAGGAUCACCCAUGUACGUGGGUAGUGCUCGUGC [Soatceri] (Eterna round: R96, puzzle: Exclusion NG 1) |  |  |  | 26 nM | 10.9 nM | 21.8 nM
13 | GGGCCCGGUGUGAGGAUAUGUUUGGGUAAACCCGGGCAGAAGGCACAUGAGGAUCACCCAUGUAAGCCGGGCCC [-37.5, -35.4 kcal, A 23%, 5bbis-0] (Eterna round: R97, puzzle: Brourd's mod of Exclusion 4) |  |  |  | 14.7 nM |  | 19.2 nM
14 | AAUUAAUAUCAGGAUAUGACGUGCCUCGGCACGUCAGAAGGGAUGACAUGAGGAUCACCCAUGUGAUCAAUUAA [E6/1-A2] (Eterna round: R97, puzzle: Exclusion 6) |  |  |  | 153 nM |  | 28.7 nM
15 | UCGAAGCUAGGAUAUACAUGAGGAUCACCCAUGUGAGUAAUAACUUGGAGAUACCUCCGUAGAAGGAGCACAAA [Beatdienat] (puzzle: Exclusion 3) | 310 nM | 107 nM | 125 nM |  |  | 
16 | GGUCAGACGGUAGGAUAUCCAUAUCGAGUGACUCUUUCAUAACAUGAGGAUCACCCAUGUCGGUGGGAGAAGGGCCGUACGGCG [salish99_ExNG02_R04_005] (Eterna round: R96, puzzle: Exclusion NG 2) |  |  |  | 61.5 nM | 29.6 nM | 42.7 nM
17 | AGUUCACAUGAGGAUCACCCAUGUGAGGAUAUGGUUUCGCUGGCCGUAGCCAGUGGAACCAGAAGGCGCGUGAU [Mat - Exclusion 1 - JL Mod - D15] (Eterna round: R97, puzzle: Exclusion 1) |  |  |  | 52.1 nM |  | 51 nM
18 | GUUUUCAGACGGAGAUCCUACAUGAGGAUCACCCAUGUCUCUCUAGCUAAUUGCUCGUCUUAUUCUCCUCUGUUCUC [Elimod 38 - Jieux - Sensor, turn-off variant 1] (Eterna round: R97, puzzle: Sensor, turn-off variant 1) |  |  |  | 40 nM |  | 47.5 nM
19 | AGAUGGCGAGGAUAUACAUGAGGAUCACCCAUGUGAGAAGAGAAAGUGAGGAAGAAAAGUAGAAGGCGCUGUCA [Mat - Exclusion 3 - Mod of Salish D21] (puzzle: Exclusion 3) | 200 nM | 60.9 nM | 57 nM |  |  | 
20 | AGACCGAUAGCAGGAUAUAGGACGACGAGAGCGCUAGAAGGGCUGACGACAUGAGGAUCACCCAUGUUUUCGUCUCAACAGGCA [Eternabot solution 22] (Eterna round: R96, puzzle: Exclusion NG 1) |  |  |  | 31 nM | 23.1 nM | 29.2 nM
21 | GGAGAGAUAUAGGAUAUGGGAGGGAGGACCGGACCAGAAGGAUAGACAUGAGGAUCACCCAUGUAGAGAUCCUC [AK-MS2ROC-r4-exclusion6-6.1] (Eterna round: R97, puzzle: Exclusion 6) |  |  |  | 302 nM |  | 270 nM
22 | GGCCGUAAUAAGGAUAUCACUAGCCUCGGCUAGUGAGAAGGUAUUACAUGAGGAUCACCCAUGUGAUCAGGCCA [E6/3-B2] (Eterna round: R97, puzzle: Exclusion 6) |  |  |  | 862 nM |  | 160 nM
23 | CCCAUGUCAGGAUAUUAGAUACUGCCUCAAAACAAAGGCAUUGAGAAGGGACAUGAGGAUCACCCAUGUAAAAC [Leissobima] (Eterna round: R97, puzzle: Exclusion 4) |  |  |  | 59.5 nM |  | 183 nM
